Results: publication PMC8931381 (Proceedings of the National Academy of Sciences of the …, 2022)
Read-outs that look alike come from different tables or passages of the source.

Legend:
cryo-EM structure [1] = target: the molecule itself; experiment: cryo-EM structure
cryo-EM structure [2] = target: the molecule itself; experiment: cryo-EM structure; remark: listed apart in the source

B1: FliL of Borrelia burgdorferi (BbFliL) (natural protein, UniProt Q57442 1-178, looked up)
chain: MPNKDDDNLDMGDSNVSRKGGLLPDIIIKILQILAIGIFTVAIMIIVSYFVSKMVVSQSGAPSDFPVFSNEYLGKPPMLIWYESIDEIRGNTLDVPPKTFVVKLALGYAENNVNILNELGRQKVRLKDIIREYFSQRTGQEIKNESQIKAEIKARINSILRNGEIKEIALTQIDIFDM
stoichiometry N (cryo-EM structure [1]): 4
stoichiometry N (cryo-EM structure [2]): 10
